Laboratory results as given in US20030143192A1 (Human Genome Sciences, published 2003).

T1: human CCR3 (human, UniProt P51677 1-355)
T1 construct: whole, on cells; also called chemokine receptor-3; hCCR3
T1 sequence (looked up): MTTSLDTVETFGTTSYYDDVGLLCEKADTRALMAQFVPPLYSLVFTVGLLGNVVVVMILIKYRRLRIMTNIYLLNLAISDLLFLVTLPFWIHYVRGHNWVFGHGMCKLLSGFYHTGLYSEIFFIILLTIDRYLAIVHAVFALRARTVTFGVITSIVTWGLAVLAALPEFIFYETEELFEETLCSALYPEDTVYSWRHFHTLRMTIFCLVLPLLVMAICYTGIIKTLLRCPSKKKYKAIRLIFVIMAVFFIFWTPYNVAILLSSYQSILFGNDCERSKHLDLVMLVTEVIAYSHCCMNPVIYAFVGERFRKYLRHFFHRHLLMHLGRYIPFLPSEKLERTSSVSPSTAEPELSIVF

T2: human D6 chemokine receptor (human, UniProt O00590 1-384)
T2 construct: whole, on cells
T2 sequence (looked up): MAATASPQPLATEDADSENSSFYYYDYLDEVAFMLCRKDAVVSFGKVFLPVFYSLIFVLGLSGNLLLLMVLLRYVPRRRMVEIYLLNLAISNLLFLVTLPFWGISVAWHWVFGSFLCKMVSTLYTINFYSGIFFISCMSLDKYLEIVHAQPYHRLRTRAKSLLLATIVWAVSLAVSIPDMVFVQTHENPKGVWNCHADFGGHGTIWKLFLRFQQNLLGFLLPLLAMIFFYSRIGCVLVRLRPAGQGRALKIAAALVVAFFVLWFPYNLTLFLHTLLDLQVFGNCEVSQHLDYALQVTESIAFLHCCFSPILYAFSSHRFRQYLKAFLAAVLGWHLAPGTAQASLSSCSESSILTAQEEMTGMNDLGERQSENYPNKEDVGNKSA

B1: eotaxin (ligand)
chain: not shown
notes: also called human eotaxin
B2: Met-Ckβ7* (ligand)
chain: MQVGTNKELCCLVYTSWQIPQKFIVDYSETSPQCPKPGVILLTKRGRQICADPNKKWVQKYISDLKLMPEA
notes: E. coli-produced modified form of Ckβ7/MIP4: signal peptide removed, N-terminal Ala of the mature protein replaced by Met, C-terminus LKLMPEA; also called Met-22-87-Met-Pro-Glu-Ala; hg00701-e2
B3: MCP4 (ligand)
chain: not shown
notes: also called monocyte chemotactic protein-4; Ckβ-10

Tests used:
human CCR3 [1] = biological target: T1, human CCR3; assay: homologous displacement of 0.1 nM 125I-eotaxin from purified human eosinophils (CCR3)
Description: (§1) After washing with binding buffer containing 0.5M NaCl, the percentage of radio-iodinated ligand remaining bound was calculated compared to assays in which no unlabeled chemokine was added. Each point is the mean of three identical incubations and standard error is included. (C) 2×10⁵ purified eosinophils were incubated for 2 hrs at room temperature in azide-containing binding buffer with 45 nM ¹²⁵I-Met-Ckβ7* plus 500 nM of the various unlabeled chemokines indicated at the bottom of the graph. Cells were washed twice with PBS and remaining ¹²⁵I-Met-Ckβ7* bound was counted. Results are the mean of three identical incubations represented as a percentage of the binding seen in the absence of competitor, and standard error is included.
(§2) Eosinophil ¹²⁵I-Chemokine Binding Assay. 2×10⁵ purified eosinophils were placed in each well of a 96 well plate in binding buffer (1 mM CaCl₂, 5 mM MgCl₂, 0.5% BSA, 0.05% sodium azide, 50 mM Hepes (pH 7.5)). Iodinated chemokine (final concentration of 0.1 nM ¹²⁵I-eotaxin or ¹²⁵I-MCP4, specific activity 2200 Ci/mmol (NEN, Boston, Mass.)) was added in the absence or presence of unlabeled chemokines to a final volume of 100 μl. […] The plates were dried and counted after addition of 50 μl of liquid scintillant in each well. […] Cells were then washed twice with ice cold PBS and counted in a Beckman Gamma 5500B counter. […]

human CCR3 [2] = biological target: T1, human CCR3; assay: displacement of 0.1 nM 125I-MCP4 from purified human eosinophils (CCR3)
Description: as §1, §2

[3] = biological target: T2, human D6 chemokine receptor; assay: displacement of 125I-MIP1α in binding assays on CHO cells expressing D6 (not shown)
human CCR3 [4] = biological target: T1, human CCR3; assay: displacement of 0.1 nM 125I-eotaxin from 2x10^5 purified human eosinophils (CCR3), 60 min at room temperature
Description: as §1, §2

human CCR3 [5] = biological target: T1, human CCR3; assay: displacement of 0.1 nM 125I-eotaxin from purified human eosinophils (CCR3)
Description: as §1, §2

human CCR3 [6] = biological target: T1, human CCR3; assay: homologous displacement of 0.1 nM 125I-MCP4 from purified human eosinophils (CCR3)
Description: as §1, §2

Binder	IC50 (human CCR3 [1])	IC50 (human CCR3 [2])	binding result [3]	IC50 (human CCR3 [4])	IC50 (human CCR3 [5])	IC50 (human CCR3 [6])
B1	~10 nM	~5 nM				
B2		~5 nM	no binding (tested: 700 nM)	~6 nM		
B3					~60 nM	~25 nM
